Target: T1, human CCR5 chemokine receptor (Homo sapiens, UniProt P51681)
T1 construct: host or cells: Chinese Hamster Ovary (CHO) cells; membranes prepared from the cell pellet
Assay: CC-Chemokine Receptor-5 Binding by Scintillation Proximity Assay (CCR5 SPA), displacement of 125I-MIP1α
Settings: standard compound, 14-point concentration-response curve in triplicate, starting concentration 1 μM
Protocol: CC-Chemokine Receptor-5 Binding by Scintillation Proximity Assay (CCR5 SPA)
Scintillation Proximity Assay for the Human CC-Chemokine Receptor, CCR-5
This protocol describes a high-throughput screen using SPA binding to identify compounds that inhibit binding of ^125I-MIP1α to the human CCR5 chemokine receptor.
Human CCR5 receptors were expressed in Chinese Hamster Ovary (CHO) cells, registration # 12025. Cells were grown in suspension and a 50 to 80 ml CCR5 cell pellet was prepared. […]
The saturation curve binding experiment is performed by adding varying amounts of [^125I]MIP1α (0-8.5 nM to membranes and beads in concentrations chosen from the optimal protein/bead ratio. The data is analyzed using a non-linear curve-fitting program. The Kd and Bmax are derived from the curve. […]

T1 sequence (P51681 whole entry): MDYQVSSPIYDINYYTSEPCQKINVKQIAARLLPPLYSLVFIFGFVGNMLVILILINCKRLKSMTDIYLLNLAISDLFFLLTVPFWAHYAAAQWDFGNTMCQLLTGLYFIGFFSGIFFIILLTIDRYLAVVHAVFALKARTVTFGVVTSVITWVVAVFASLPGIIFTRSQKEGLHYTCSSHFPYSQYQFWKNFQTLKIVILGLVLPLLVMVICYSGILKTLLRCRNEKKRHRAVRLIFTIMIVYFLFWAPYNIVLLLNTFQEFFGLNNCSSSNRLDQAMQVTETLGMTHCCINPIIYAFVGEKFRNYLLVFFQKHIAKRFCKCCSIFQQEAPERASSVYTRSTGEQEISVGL

MIP1α: natural chemokine ligand of CCR5, used as standard compound in the SPA binding assay
average historical pKi: 7.6

From patent US7452992B2, “Heterocyclic compounds as CCR5 antagonists” (SmithKline Beecham Corporation, priority 2002, dated 2008)
